Assay results as given in article PMC10681739, “High-throughput data and modeling reveal insights into the mechanisms of cooperative DNA-binding by transcription factor proteins”.
Substitutions are numbered along the chain they refer to.

B1: Table S3 B row 71 (dsDNA)
DNA 1: CCTTTGTTGTGGTTTTTGCAGAAAGAGAAGGGTTAG
DNA 2: CTAACCCTTCTCTTTCTGCAAAAACCACAACAAAGG
B2: Table S3 B row 1550 (dsDNA)
DNA 1: TGACCTTTGTGGTTTGGTCAGCAAGTGGGGTACTGG
DNA 2: CCAGTACCCCACTTGCTGACCAAACCACAAAGGTCA
B3: Table S3 B row 2650 (dsDNA)
DNA 1: CTCCTGGGCTTGTGGTTAGAGCATCATGCAGCAAGG
DNA 2: CCTTGCTGCATGATGCTCTAACCACAAGCCCAGGAG
B4: Table S3 B row 875 (dsDNA)
DNA 1: B3 DNA 1 with G21A, C25G, A26C, G35A
DNA 2: B3 DNA 2 with C2T, T11G, G12C, C16T
B5: Table S3 B row 1255 (dsDNA)
DNA 1: GTCCAACCGCAGCCAGGCAAGCACACCCTGCCCCAC
DNA 2: GTGGGGCAGGGTGTGCTTGCCTGGCTGCGGTTGGAC
B6: Table S3 B row 1205 (dsDNA)
DNA 1: TCAGCCTGTGGTTTCTGAAGACCTCCTCGAAGTCAT
DNA 2: ATGACTTCGAGGAGGTCTTCAGAAACCACAGGCTGA
B7: Table S3 B row 1223 (dsDNA)
DNA 1: ACTGCTCAAACCACAAACGATAGCAGCAAAGGCCTG
DNA 2: CAGGCCTTTGCTGCTATCGTTTGTGGTTTGAGCAGT
B8: Table S3 B row 871 (dsDNA)
DNA 1: ATGACCGATCAACCGCAAAGGCCGGGAATGCGTCAG
DNA 2: CTGACGCATTCCCGGCCTTTGCGGTTGATCGGTCAT
B9: Table S3 B row 1633 (dsDNA)
DNA 1: CCTTTACGTCCTTTTACTTCTAACCACAGAATTAAA
DNA 2: TTTAATTCTGTGGTTAGAAGTAAAAGGACGTAAAGG
B10: Table S3 B row 2442 (dsDNA)
DNA 1: GTGAAAAAGTCTGTGGTTTTGTTTCTTGAACACCTG
DNA 2: CAGGTGTTCAAGAAACAAAACCACAGACTTTTTCAC
B11: Table S3 B row 2983 (dsDNA)
DNA 1: ACTCTGTGGTTTCATTGCCTGCCCGTAAATGCAGCT
DNA 2: AGCTGCATTTACGGGCAGGCAATGAAACCACAGAGT
B12: Table S3 B row 2108 (dsDNA)
DNA 1: GCTCGTTTGTGGTTACTGACACCCGGCCTTCATTTC
DNA 2: GAAATGAAGGCCGGGTGTCAGTAACCACAAACGAGC
B13: Table S3 B row 730 (dsDNA)
DNA 1: GTGCCTGACCACAAACCAACATTGCCTGTCTCAATT
DNA 2: AATTGAGACAGGCAATGTTGGTTTGTGGTCAGGCAC
B14: Table S3 B row 3061 (dsDNA)
DNA 1: CCTCTGCCCAACCACAATTTTCCCTTCGTCAGCCTT
DNA 2: AAGGCTGACGAAGGGAAAATTGTGGTTGGGCAGAGG
B15: Table S3 B row 3681 (dsDNA)
DNA 1: CGGCACCCTCCTTCGTCCCTGCCAACCGCCTCCACC
DNA 2: GGTGGAGGCGGTTGGCAGGGACGAAGGAGGGTGCCG
B16: Table S3 B row 1104 (dsDNA)
DNA 1: TTTCTGTGGTTTGGTTTCTATAGAGACACTTGCTGT
DNA 2: ACAGCAAGTGTCTCTATAGAAACCAAACCACAGAAA
B17: Table S3 B row 601 (dsDNA)
DNA 1: GGTTCCTTGCGGTTCGCGGCGTGCCGGGCGTGACAA
DNA 2: TTGTCACGCCCGGCACGCCGCGAACCGCAAGGAACC
B18: Table S3 B row 2093 (dsDNA)
DNA 1: GTTAACCGCACTGCCGCTGGCTGGGTGTCCGCGGCA
DNA 2: TGCCGCGGACACCCAGCCAGCGGCAGTGCGGTTAAC
B19: Table S3 B row 2175 (dsDNA)
DNA 1: AAATCAAAACCACAATCAGATACCACTTGCTGCCCA
DNA 2: TGGGCAGCAAGTGGTATCTGATTGTGGTTTTGATTT
B20: Table S3 B row 2012 (dsDNA)
DNA 1: TTTTTGTGTTTTTGTGGTTTCTTCCGATCTTAGTCA
DNA 2: TGACTAAGATCGGAAGAAACCACAAAAACACAAAAA
B21: Table S3 B row 1736 (dsDNA)
DNA 1: CTCCTGTGGTTTCTAAACTGTCAGCATGTTGGCTTG
DNA 2: CAAGCCAACATGCTGACAGTTTAGAAACCACAGGAG
B22: Table S3 B row 3404 (dsDNA)
DNA 1: TTGGTCTTGTGGTTTTGCAAGGCAGGGGTGATATAT
DNA 2: ATATATCACCCCTGCCTTGCAAAACCACAAGACCAA
B23: Table S3 B row 518 (dsDNA)
DNA 1: GACCCACTGCGGTCATGCTGCTCCCTGCCCAACCCG
DNA 2: CGGGTTGGGCAGGGAGCAGCATGACCGCAGTGGGTC
B24: Table S3 B row 586 (dsDNA)
DNA 1: CTTGTCCCTTGTGGTTTTTTGCATTTGCTGTTCCCT
DNA 2: AGGGAACAGCAAATGCAAAAAACCACAAGGGACAAG
B25: Table S3 B row 1412 (dsDNA)
DNA 1: GTCGCCCCCACCGCAAGTATTTCAGCTTCCCTCCGC
DNA 2: GCGGAGGGAAGCTGAAATACTTGCGGTGGGGGCGAC
B26: Table S3 B row 1899 (dsDNA)
DNA 1: CCGCCGCGACCGCAGGCCTCCGTTCAGCCGGGGTAA
DNA 2: TTACCCCGGCTGAACGGAGGCCTGCGGTCGCGGCGG
B27: Table S3 B row 1694 (dsDNA)
DNA 1: CTGCAAACCACAAAACACCTGACTGCTACGTAAGAT
DNA 2: ATCTTACGTAGCAGTCAGGTGTTTTGTGGTTTGCAG
B28: Table S3 B row 2945 (dsDNA)
DNA 1: GCTCCTCACTGCGGTCACAGCCACATGCTGCAGAGC
DNA 2: GCTCTGCAGCATGTGGCTGTGACCGCAGTGAGGAGC
B29: Table S3 B row 2134 (dsDNA)
DNA 1: CACCTTGTGGTTTCTCTGAGTGTCACACCTCCCCAG
DNA 2: CTGGGGAGGTGTGACACTCAGAGAAACCACAAGGTG
B30: Table S3 B row 1212 (dsDNA)
DNA 1: GCTTTTCTGTGGTTTTTCTCACACGGGAATTGAGAG
DNA 2: CTCTCAATTCCCGTGTGAGAAAAACCACAGAAAAGC
B31: Table S3 B row 2560 (dsDNA)
DNA 1: TGAGGTTGTGGTTAGGCAGGACGAAGCCGTTTGTAG
DNA 2: CTACAAACGGCTTCGTCCTGCCTAACCACAACCTCA
B32: Table S3 B row 2477 (dsDNA)
DNA 1: GGTGCGGTTAAGGCGAGGCTCCTTCTTTACTGTGAC
DNA 2: GTCACAGTAAAGAAGGAGCCTCGCCTTAACCGCACC

Molecular target: RUNX1 (Homo sapiens, UniProt Q01196)
Sequence (Q01196 whole entry): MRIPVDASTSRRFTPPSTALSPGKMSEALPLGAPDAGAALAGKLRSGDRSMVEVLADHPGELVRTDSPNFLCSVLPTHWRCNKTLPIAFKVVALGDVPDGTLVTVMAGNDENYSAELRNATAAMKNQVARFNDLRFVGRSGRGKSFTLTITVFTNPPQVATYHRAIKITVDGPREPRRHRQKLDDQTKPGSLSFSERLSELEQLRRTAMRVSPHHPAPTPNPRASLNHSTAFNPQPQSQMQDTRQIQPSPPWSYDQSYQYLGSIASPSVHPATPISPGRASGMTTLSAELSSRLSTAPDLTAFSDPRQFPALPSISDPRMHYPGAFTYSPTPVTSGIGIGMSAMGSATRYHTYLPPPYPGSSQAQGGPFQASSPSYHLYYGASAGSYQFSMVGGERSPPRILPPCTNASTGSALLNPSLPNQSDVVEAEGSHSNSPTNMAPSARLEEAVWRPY
Assay: gcPBM; 2 nM RUNX1
Conditions: tags: N-terminal GST (pDEST15), kept (PMC6008103); label: surface-attached array probe

Row | Binder | binding signal
1 | B1 | 10300 PBM fluorescence, median of replicate spots
2 | B2 | 9070 PBM fluorescence, median of replicate spots
3 | B3 | 6170 PBM fluorescence, median of replicate spots
4 | B4 | 6070 PBM fluorescence, median of replicate spots
5 | B5 | 8530 PBM fluorescence, median of replicate spots
6 | B6 | 6080 PBM fluorescence, median of replicate spots
7 | B7 | 6810 PBM fluorescence, median of replicate spots
8 | B8 | 7280 PBM fluorescence, median of replicate spots
9 | B9 | 6510 PBM fluorescence, median of replicate spots
10 | B10 | 9320 PBM fluorescence, median of replicate spots
11 | B11 | 5930 PBM fluorescence, median of replicate spots
12 | B12 | 8520 PBM fluorescence, median of replicate spots
13 | B13 | 6950 PBM fluorescence, median of replicate spots
14 | B14 | 6030 PBM fluorescence, median of replicate spots
15 | B15 | 5850 PBM fluorescence, median of replicate spots
16 | B16 | 8510 PBM fluorescence, median of replicate spots

Row | Binder | binding signal
17 | B17 | 5880 PBM fluorescence, median of replicate spots
18 | B18 | 6840 PBM fluorescence, median of replicate spots
19 | B19 | 6180 PBM fluorescence, median of replicate spots
20 | B20 | 9430 PBM fluorescence, median of replicate spots
21 | B21 | 6800 PBM fluorescence, median of replicate spots
22 | B22 | 8240 PBM fluorescence, median of replicate spots
23 | B23 | 6470 PBM fluorescence, median of replicate spots
24 | B24 | 7790 PBM fluorescence, median of replicate spots
25 | B25 | 6050 PBM fluorescence, median of replicate spots
26 | B26 | 6120 PBM fluorescence, median of replicate spots
27 | B27 | 9300 PBM fluorescence, median of replicate spots
28 | B28 | 6290 PBM fluorescence, median of replicate spots
29 | B29 | 6600 PBM fluorescence, median of replicate spots
30 | B30 | 8950 PBM fluorescence, median of replicate spots
31 | B31 | 7390 PBM fluorescence, median of replicate spots
32 | B32 | 6190 PBM fluorescence, median of replicate spots
